The text below walks through data of PMC3962895.

The target of this experiment is dEV8 (8-mer self-peptide) peptide on H-2Kb (mouse). In words: data from.

Broadly, the Kd is the equilibrium constant for the complex coming apart. Low readings indicate higher affinity, high ones lower affinity.

2C TCR: the Kd was found to be 84.1 µM.
